Source: US20240270841A1

Biological target: LILRB1 expressed on the surface of human natural killer cell KHYG-1 (human) (UniProt Q8NHL6)
Experiment: flow cytometry (iQue) on KHYG-1 NK cells, antibody 50 ug/mL

Chain of LILRB1 expressed on the surface of human natural killer cell KHYG-1 (human) (Q8NHL6 24-650): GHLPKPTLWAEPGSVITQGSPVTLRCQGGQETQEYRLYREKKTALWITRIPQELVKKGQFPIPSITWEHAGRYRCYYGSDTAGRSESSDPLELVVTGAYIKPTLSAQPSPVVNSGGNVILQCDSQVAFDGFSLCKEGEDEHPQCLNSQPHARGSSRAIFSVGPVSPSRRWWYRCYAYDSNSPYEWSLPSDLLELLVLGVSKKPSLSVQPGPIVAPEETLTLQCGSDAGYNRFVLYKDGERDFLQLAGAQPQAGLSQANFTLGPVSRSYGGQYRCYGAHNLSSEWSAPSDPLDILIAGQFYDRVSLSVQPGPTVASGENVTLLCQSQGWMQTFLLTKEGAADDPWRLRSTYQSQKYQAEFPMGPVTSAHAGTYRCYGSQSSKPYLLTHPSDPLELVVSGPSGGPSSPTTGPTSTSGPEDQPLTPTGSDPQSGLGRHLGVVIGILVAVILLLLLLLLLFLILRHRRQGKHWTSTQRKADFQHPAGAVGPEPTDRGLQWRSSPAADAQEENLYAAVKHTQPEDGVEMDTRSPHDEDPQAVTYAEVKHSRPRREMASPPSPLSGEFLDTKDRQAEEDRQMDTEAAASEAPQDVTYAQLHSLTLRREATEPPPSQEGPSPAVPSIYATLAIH

## human IgG4 isotype control antibody (Biolegend)
  % of population 2: 2.95%
  Mean Fluorescence Intensity: 143000
